B1: KCNAB2 (parent)
chain: SSIIHEIDSILGNKPYSKKDYRS
B2: INTS3 (parent)
chain: FHPIKETVVEEPVDITPYLDQLDE

Variants of: B1
Experiment: protein stability index of a GFP-peptide fusion (GPS, HEK-293T) (PSI 1-6); higher = more stable
Conditions: c terminus: native
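Note: lentivirally expressed fusions sorted by FACS into six bins by GFP to DsRed ratio, PSI derived from sequencing read proportions per bin multiplied by bin number.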

Protein stability index: each site, then its substitutions
E6: Y 1.69 | F 3.61 | H 2.31 | I 2.01 | A 1.72 | V 3.15 | N 3.65 | G 2.82 | C 1.94 | T 2.23 | D 2.97 | Q 2.62 | S 2.66 | K 3.21 | R 2.26 | W 3.44 | P 2.9 | L 3.25
S9: M 2.2 | D 2.89 | G 3.66 | A 2.48 | I 2.08 | H 2.8 | E 3.66 | N 2.94 | L 2.38 | K 3.54 | F 1.75
I3: R 4.09 | K 2.78 | P 3.96 | C 3.85 | W 1.72 | M 3.17 | H 4 | Y 3.17 | V 3.61 | T 4.58 | S 4.63 | L 2.9 | F 2.83 | D 4.67 | Q 2.53 | N 4.2 | E 4.16 | G 4.46 | A 3.94
S2: G 3.2 | K 1.66 | N 3.43 | V 1.89 | R 3.13 | I 1.72 | C 2.22 | T 3.75 | Q 3.07 | F 2.4 | L 1.77 | P 3.68 | A 2.89 | D 3.81 | Y 2.24 | H 2.31 | W 2.66 | M 1.98 | E 4.02
S1: P 3.28 | Q 2.94 | E 2.82 | G 3.04 | A 2.43 | K 3.55 | T 2.6 | C 2.47 | N 3.97 | R 2.78 | M 1.8 | F 2.06 | L 2.13 | D 3.67 | Y 1.59 | H 2.46 | I 2.67 | V 2.34
I4: D 4.28 | A 3.44 | G 2.69 | T 3.95 | L 2.56 | N 4.51 | K 2.81 | S 3.25 | Q 4.26 | H 2.86 | R 2.94 | C 3.6 | M 2.59 | Y 2.75 | P 4.63 | F 1.29 | V 2.46 | E 3.9 | W 1.4
D8: G 2.41 | Q 3.06 | N 2.69 | P 2.77 | Y 2.14 | C 1.59 | E 2.16 | T 2.25 | K 2.07 | H 2.06 | V 2.57 | A 2.06 | R 2.84 | S 2.45
H5: T 3.6 | G 3.07 | M 1.76 | Y 2.05 | P 3.09 | V 2.38 | E 2.7 | N 3.44 | A 3.83 | K 3.83 | D 3.7 | S 2.98 | Q 3.02 | R 3.64 | I 1.48 | W 2.2 | L 2.21 | C 2.42 | F 2.21
I7: Y 4.53 | T 4.7 | N 4.63 | A 4.65 | C 4.15 | K 3.45 | P 4.47 | F 2.71 | H 3.97 | D 4.4 | M 2.75 | S 4.38 | G 4.45 | L 2.86 | Q 4.42 | E 4.51 | R 3.86

Variants of: B2
Experiment: as above
Conditions: c terminus: a fixed tail appended

Protein stability index, by site and new letter:
K5: R 3.9 | M 4.24 | I 3.14 | C 3.99 | G 4.4 | N 4.8
I4: K 3.08 | M 4.2 | L 3.85 | S 3.87 | D 4.08 | P 2.96 | R 3.17
E11: K 3.02 | Q 3.53 | W 2.11 | F 1.92 | D 3.15
I15: C 3.49 | W 2.39 | Y 3.3 | Q 3.79 | L 3.25 | G 3.23 | A 3.43 | E 4.59 | N 2.32 | M 2.86
P12: Y 2.81 | R 3.01 | I 2.93 | T 3.18 | L 3.1 | F 3.65 | Q 3.52 | D 3.52 | C 3.03
D20: V 2.11 | G 2.99 | A 3.11 | I 2.35 | L 2.28 | C 2.49 | T 2.94 | K 2.78 | M 2.02
V13: K 3.05 | F 3.05 | I 3.4 | W 2.92
D14: I 2.9 | A 3.05 | Y 2.11 | P 3.09 | V 2.73 | E 3.18 | L 2.91 | W 1.63 | C 3.12 | K 3.13
H2: N 5.18 | K 5.24 | T 4.62 | I 3.71 | R 4.81
L19: N 3.66 | M 2.86 | P 3.88 | S 3.98 | Y 3.2 | E 4.34
T16: Y 2.77 | R 2.84 | K 3.45 | D 3.79 | W 2.33
V9: G 3.93 | Y 2.97 | P 3.62 | S 3.25 | C 2.89
Q21: I 3.26 | Y 2.5 | E 3.62 | G 3.56 | M 3.42 | F 2.55 | S 2.82 | W 2.26 | T 3.19
F1: T 5.54 | W 4.97 | Y 3.3 | N 5.47 | V 5.44 | C 5.32 | I 4.99
L22: V 3.41 | T 3.38 | D 3.62 | I 3.83 | W 2.73 | H 3.5 | M 2.57 | N 3.85
E24: N 3.17 | Y 2.47 | Q 2.7 | C 2.77 | V 2.99 | I 2.44 | F 1.93 | A 2.58
D23: H 2.66 | E 3.29 | V 2.3 | I 2.06 | Y 2.18 | T 3.08 | L 2.21 | G 2.59 | A 2.35
P17: G 3.46 | K 2.88 | W 3.61 | Y 3.75 | A 3.25 | T 2.94 | E 3.89 | R 2.39 | N 3.19 | H 3.63
T7: C 2.66 | A 3.73 | V 3.12 | F 2.32 | N 3.55 | G 4.18 | E 4.19 | W 2.89 | D 3.85 | P 3.31
Y18: P 3.23 | F 3.79 | K 3.77 | V 3.87 | R 3.58 | M 3.58 | S 3.77
E10: P 2.98 | A 2.39 | R 2.1 | H 2.56 | M 2.16
P3: M 2.9 | G 4.49 | H 3.56 | Q 3.78 | S 4.03 | W 1.73 | D 4.79 | A 3.82 | C 3.23
V8: S 3.38 | P 3.73 | M 2.95 | N 3.59 | F 2.73 | Y 3.06 | H 3.19 | R 3.03
E6: I 1.57 | H 2.01 | P 2.89 | Q 2.1 | D 3.77 | A 2.42 | T 3.28 | V 1.87 | F 1.53

Reference: the supplement of paper PMC10567573
